Reference: patent publication US20220227829A1 (SHANGHAI GP BIOTECH, published 2022)

Columns and labels:
[1] = molecular target: T1, CD25 protein (from Example 2); assay: ELISA on coated CD25, sample at 1 ug/ml, relative to rhIL-2 = 100%
T1 chain: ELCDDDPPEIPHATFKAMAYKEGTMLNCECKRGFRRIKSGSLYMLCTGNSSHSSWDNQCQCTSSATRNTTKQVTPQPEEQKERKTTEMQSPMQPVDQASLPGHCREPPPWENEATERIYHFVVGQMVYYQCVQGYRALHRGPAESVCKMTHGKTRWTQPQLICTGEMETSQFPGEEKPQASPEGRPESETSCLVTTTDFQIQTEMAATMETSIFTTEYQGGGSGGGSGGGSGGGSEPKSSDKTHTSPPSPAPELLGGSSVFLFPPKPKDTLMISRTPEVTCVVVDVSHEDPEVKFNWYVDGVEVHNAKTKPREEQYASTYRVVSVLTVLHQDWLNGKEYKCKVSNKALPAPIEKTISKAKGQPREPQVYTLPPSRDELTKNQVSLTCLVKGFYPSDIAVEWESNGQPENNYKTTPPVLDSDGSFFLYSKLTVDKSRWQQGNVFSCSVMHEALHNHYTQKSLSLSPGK
Description: (§1) CD25 (from Example 2) was coated on a 96-well high adsorption microtiter plate (3590, Costar), washed and blocked. The sample to be tested was diluted to an appropriate concentration and added to wells.

[2] = molecular target: T1, CD25 protein (from Example 2); assay: ELISA on coated CD25, sample at 0.2 ug/ml, relative to rhIL-2 = 100%
Description: as §1

[3] = molecular target: T1, CD25 protein (from Example 2); assay: ELISA on coated CD25, sample at 0.04 ug/ml, relative to rhIL-2 = 100%
Description: as §1

[4] = molecular target: T1, CD25 protein (from Example 2); assay: ELISA on coated CD25
Description: as §1

[5] = molecular target: T2, CD25 on the surface of NK92 cells (human NK cell line) (human, UniProt P01589 22-272); assay: cell-based or functional assay
T2 sequence (looked up): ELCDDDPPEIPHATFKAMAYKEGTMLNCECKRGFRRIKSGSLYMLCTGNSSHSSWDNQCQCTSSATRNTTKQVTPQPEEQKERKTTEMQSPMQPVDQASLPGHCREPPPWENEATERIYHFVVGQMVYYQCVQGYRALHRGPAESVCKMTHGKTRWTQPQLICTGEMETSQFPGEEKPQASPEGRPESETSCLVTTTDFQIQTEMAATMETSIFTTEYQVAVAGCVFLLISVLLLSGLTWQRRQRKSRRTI

[6] = molecular target: T3, CD25 on the surface of CTLL-2 cells (mouse cytotoxic T lymphocyte cell line) (mouse, UniProt P01590 22-268); assay: cell-based or functional assay
T3 sequence (looked up): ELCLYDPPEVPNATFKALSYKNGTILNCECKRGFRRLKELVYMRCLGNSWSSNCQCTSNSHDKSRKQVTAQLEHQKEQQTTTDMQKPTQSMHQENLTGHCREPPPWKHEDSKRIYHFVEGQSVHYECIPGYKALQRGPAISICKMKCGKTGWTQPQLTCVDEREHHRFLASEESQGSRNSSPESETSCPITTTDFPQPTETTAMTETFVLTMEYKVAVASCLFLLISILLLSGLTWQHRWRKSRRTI

Binding activity (%) [1]: 0.74%
Binding activity (%) [2]: 0.99%
Binding activity (%) [3]: 1.51%
binding result [4]: no binding (tested: 1 ug/ml)
EC50 (nM), NK92 cell proliferation [5]: 0.306 nM
Potency relative to rhIL-2 (%), NK92 cell proliferation [5]: 1.73%
B1: IL-2qm (T3A, F42A, Y45A, L72G), IgG1-Fc tag (Fc fusion)
chain: APASSSTKKTQLQLEHLLLDLQMILNGINNYKNPKLTRMLTAKFAMPKKATELKHLQCLEEELKPLEEVLNGAQSKNFHLRPRDLISNINVIVLELKGSETTFMCEYADETATIVEFLNRWITFAQSIISTLTEPKSSDKTHTSPPSPAPELEGGSSVFLFPPKPKDTLMISRTPEVTCVVVDVSHEDPEVKFNWYVDGVEVHNAKTKPREEQYASTYRVVSVLTVLHQDWLNGKAYACAVSNKALPAPIEKTISKAKGQPREPQVYTLPPSREEMTKNQVSLTCLVKGFYPSDIAVEWESNGQPENNYKTTPPVLDSDGSFFLYSKLTVDKSRWQQGNVFSCSVMHEALHNHYTQKSLSLSPGK
notes: copies 2 rests on that; also called IL-2qm-Fc; Rocheglicat (CN103492411B)
Potency relative to rhIL-2 (%), CTLL-2 cell proliferation [6]: 0%
